This test concerns the target mitogen-activated protein kinase-activated protein kinase 2 (MK2), P49137. Kind of test: cell-based or functional assay.

Where no end group is shown, it is not given here.

Chain of mitogen-activated protein kinase-activated protein kinase 2 (MK2), P49137 (P49137 46-400): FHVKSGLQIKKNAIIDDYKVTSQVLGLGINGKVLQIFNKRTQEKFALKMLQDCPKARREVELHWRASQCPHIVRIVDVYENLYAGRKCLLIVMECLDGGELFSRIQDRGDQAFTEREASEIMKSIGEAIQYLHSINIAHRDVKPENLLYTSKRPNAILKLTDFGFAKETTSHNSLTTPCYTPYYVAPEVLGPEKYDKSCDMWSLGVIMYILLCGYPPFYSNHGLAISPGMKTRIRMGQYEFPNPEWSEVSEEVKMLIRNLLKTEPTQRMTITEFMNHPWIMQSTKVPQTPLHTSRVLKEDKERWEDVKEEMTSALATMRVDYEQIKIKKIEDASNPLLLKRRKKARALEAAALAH

Regarding YARAAARQARAKALARQLGVAA (not fully specified (C-terminus)) [MMI-0100 (…; SEQ ID NO: 1)], the Percent Activity (radiometric kinase assay, peptide at 100 µM) is less than 5 % activity.
